Reference: US20180186873A1 (CEPHALON, published 2018)
Several values for one entry are separate records, joined by “and”; a condition that tells them apart may be missing. Equal entries are not always repeated. Where two headings read alike, the source gives them in different places.

Experiments:
[1] = biological target: T1, recombinant human IL-5 (human, UniProt P05113 20-134); assay: SPR Biacore, purified Ab on Protein A chip, IL-5 analyte, run 2.2
[2] = biological target: T1, recombinant human IL-5; assay: SPR Biacore, purified Ab on Protein A chip, IL-5 analyte, run 3.1
[3] = biological target: T1, recombinant human IL-5
[4] = biological target: T1, recombinant human IL-5; remark: listed apart in the source
[5] = biological target: T1, recombinant human IL-5; remark: listed apart in the source
[6] = biological target: T1, recombinant human IL-5; remark: listed apart in the source
[7] = biological target: T1, recombinant human IL-5; remark: listed apart in the source
[8] = biological target: T1, recombinant human IL-5; remark: listed apart in the source
[9] = biological target: T1, recombinant human IL-5; remark: listed apart in the source
[10] = biological target: T1, recombinant human IL-5; remark: listed apart in the source
[11] = biological target: T1, recombinant human IL-5; remark: listed apart in the source
[12] = biological target: T1, recombinant human IL-5; remark: listed apart in the source
[13] = biological target: T2, recombinant human IL-5 (human, UniProt P05113 20-134); assay: Biacore SPR, purified Ab captured on Protein A, IL-5 injected, run 1.2
[14] = biological target: T2, recombinant human IL-5; assay: Biacore SPR, purified Ab captured on Protein A, IL-5 injected, run 2.1
[15] = biological target: T2, recombinant human IL-5; remark: listed apart in the source
[16] = biological target: T2, recombinant human IL-5; remark: listed apart in the source
[17] = biological target: T2, recombinant human IL-5; remark: listed apart in the source
[18] = biological target: T2, recombinant human IL-5; remark: listed apart in the source
[19] = biological target: T2, recombinant human IL-5; remark: listed apart in the source
[20] = biological target: T2, recombinant human IL-5; remark: listed apart in the source
[21] = biological target: T2, recombinant human IL-5; remark: listed apart in the source
[22] = biological target: T2, recombinant human IL-5; remark: listed apart in the source
[23] = biological target: T3, recombinant human IL-5 (human, UniProt P05113 20-134); assay: Biacore SPR, purified Ab on Protein A chip
[24] = biological target: T3, recombinant human IL-5; assay: Biacore SPR, Ab supernatant on Protein A chip
[25] = biological target: T3, recombinant human IL-5; assay: Biacore SPR, Ab supernatant on Protein A chip, average of replicates

B1: 3A5.040 (antibody, human IgG4 S228P, lambda)
heavy: not shown
light: SYVLTQPPSVSVAPGQTARITCGGNNIGSKNVYWYQQKPGQAPVLVVHDDSDRPSGIPERFSGSNSGNTATLTISRVEVGDEADYSCQVWDSSSDHVVFGGGTKLTVLGQPKAAPSVTLFPPSSEELQANKATLVCLISDFYPGAVTVAWKADSSPVKAGVETTTPSKQSNNKYAASSYLSLTPEQWKSHRSYSCQVTHEGSTVEKTVAPTECS
B1 was tested, and the Kd [1] was 0.133 nM, the koff [1] was 0.000106 s⁻¹ and the kon [1] was 793000 M⁻¹ s⁻¹. The Kd [2] was 0.174 nM, the koff [2] was 0.00014 s⁻¹ and the kon [2] was 807000 M⁻¹ s⁻¹. The Kd [3] was 0.135 nM, the koff [3] was 0.000105 s⁻¹ and the kon [3] was 777000 M⁻¹ s⁻¹. The Kd [4] was 0.138 nM, the koff [4] was 0.000109 s⁻¹ and the kon [4] was 789000 M⁻¹ s⁻¹. For the same binder, the Kd [5] was 0.177 nM, the koff [5] was 0.000137 s⁻¹ and the kon [5] was 772000 M⁻¹ s⁻¹. For the same binder, the Kd [6] was 0.171 nM, the koff [6] was 0.000132 s⁻¹ and the kon [6] was 772000 M⁻¹ s⁻¹. It also gave a Kd [7] of 0.148 nM, a koff [7] of 0.000115 s⁻¹ and a kon [7] of 776000 M⁻¹ s⁻¹. The Kd [8] was 0.134 nM, the koff [8] was 0.000103 s⁻¹ and the kon [8] was 773000 M⁻¹ s⁻¹. The Kd [9] was 0.149 nM, the koff [9] was 0.000114 s⁻¹ and the kon [9] was 769000 M⁻¹ s⁻¹. It also gave a Kd [10] of 0.153 nM, a koff [10] of 0.00012 s⁻¹ and a kon [10] of 784000 M⁻¹ s⁻¹. For the same binder, the Kd [11] was 0.15 nM, the koff [11] was 0.000117 s⁻¹ and the kon [11] was 779000 M⁻¹ s⁻¹. For the same binder, the Kd [12] was 0.151 nM, the koff [12] was 0.000117 s⁻¹ and the kon [12] was 775000 M⁻¹ s⁻¹.

B2: 3A5.040 (antibody, human IgG4 S228P, lambda)
heavy: not shown
light: B1 light
With B2 the Kd [13] was 0.151 nM, the koff [13] was 0.000111 s⁻¹ and the kon [13] was 735000 M⁻¹ s⁻¹. For the same binder, the Kd [14] was 0.142 nM, the koff [14] was 0.000105 s⁻¹ and the kon [14] was 737000 M⁻¹ s⁻¹. It also gave a Kd [15] of 0.18 nM, a koff [15] of 0.000133 s⁻¹ and a kon [15] of 740000 M⁻¹ s⁻¹. The Kd [16] was 0.115 nM, the koff [16] was 8.22e-05 s⁻¹ and the kon [16] was 714000 M⁻¹ s⁻¹. It also gave a Kd [17] of 0.139 nM, a koff [17] of 0.000101 s⁻¹ and a kon [17] of 728000 M⁻¹ s⁻¹. The Kd [18] was 0.15 nM, the koff [18] was 0.00011 s⁻¹ and the kon [18] was 732000 M⁻¹ s⁻¹. It also gave a Kd [19] of 0.129 nM, a koff [19] of 9.36e-05 s⁻¹ and a kon [19] of 727000 M⁻¹ s⁻¹. The Kd [20] was 0.163 nM, the koff [20] was 0.000116 s⁻¹ and the kon [20] was 713000 M⁻¹ s⁻¹. For the same binder, the Kd [21] was 0.143 nM, the koff [21] was 0.000104 s⁻¹ and the kon [21] was 728000 M⁻¹ s⁻¹. The Kd [22] was 0.163 nM, the koff [22] was 0.000116 s⁻¹ and the kon [22] was 713000 M⁻¹ s⁻¹.

B3: 3A5.040 (antibody, human IgG4 S228P, lambda)
heavy: not shown
light: B1 light
B3 was tested, and the Kd [23] was 0.092 nM, the koff [23] was 6.63e-05 s⁻¹ and the kon [23] was 721000 M⁻¹ s⁻¹. For the same binder, the Kd [24] was 0.148 nM and 0.149 nM, the koff [24] was 0.000103 s⁻¹ and 0.000106 s⁻¹ and the kon [24] was 696000 M⁻¹ s⁻¹ and 710000 M⁻¹ s⁻¹. The Kd [25] was 0.149 nM, the koff [25] was 0.000105 s⁻¹ and the kon [25] was 703000 M⁻¹ s⁻¹.
